The test system of one assay is K562 nuclei. Briefly: iDAPT protein labeling, western blot of labeled nuclear lysates. It counts as biochemical, human. As to the method:
(§1) DNA and protein tagging by iDAPT. All iDAPT proteomic labeling assays were performed as described below unless indicated otherwise. 2.5 μmol MEDS-A/B, 2 μmol enzyme, and 1 μmol hemin chloride per channel were incubated at room temperature for 1 hour. 1e7 cells per sample were washed (500×g, 5 minutes, 4° C.), lysed and triturated in 100 μL LB1 (10 mM Tris-HCl pH 7.5, 10 mM NaCl, 3 mM MgCl2, 1% BSA, 0.01% digitonin, 0.1% Tween-20, 0.1% NP-40, and 1× cOmplete EDTA-free protease inhibitor cocktail [Roche]) for 3 minutes, and subsequently supplemented with an additional 1 mL of LB2 (10 mM Tris-HCl pH 7.5, 10 mM NaCl, 3 mM MgCl2, 1% BSA, 0.1% Tween-20, and 1× protease inhibitor). Nuclei were pelleted (500×g, 10 minutes, 4° C.), resuspended with tagmentation reaction mixture (20% dimethylformamide, 10 mM MgCl2, 20 mM Tris-HCl pH 7.5, 33% 1×PBS, 1% BSA, 0.01% digitonin, 0.1% Tween-20, 500 μM biotin-phenol, 1× protease inhibitor, and 2 pmol enzyme equivalent of enzyme:DNA:heme complex in a total volume of 500 μL), and incubated at 37° C. for 30 minutes with agitation on a thermomixer (1,000 rpm). 5 μL of tagmentation mix was saved for quality assessment as described above for ATAC-seq/iDAPT-seq sample preparation. The remaining nuclear suspension was then washed 2× with 1×PBS supplemented with 500 μM biotin-phenol, 1% BSA, 0.1% Tween-20, and 1× protease inhibitor (3000×g, 5 minutes, 4° C.) and labeled with 1 mM hydrogen peroxide and 500 μM biotin-phenol for 1 minute in 1×PBS with 1× protease inhibitor in a volume of 500 μL. Peroxidation reactions were quenched with 500 μL 2× quenching buffer (10 mM Trolox, 20 mM sodium ascorbate, 20 mM NaN3, and 1× protease inhibitor in 1×PBS). Labeled nuclei were then pelleted, washed with 1× quenching buffer, resuspended in 500 μL RIPA containing protease inhibitors, and frozen at −80° C. Lysates were thawed on ice, sonicated via a Sonic Dismembrator 100 (Fisher Scientific, setting 3, 15 seconds, 4 pulses), and incubated on ice for 30 minutes after the addition of 1 μL benzonase (EMD Millipore). Lysates were clarified by centrifugation (15,000×g, 20 minutes, 4° C.), quantified via the detergent-compatible Bradford assay (Thermo Fisher Scientific), and subjected to either Western blotting or quantitative mass spectrometry analyses as described below. For NB4 cell analysis, an additional endogenous peroxidase blocking step was added after nuclear extraction and before tagmentation: nuclei were resuspended in 500 μL 1×PBS containing 1% BSA, 0.03% hydrogen peroxide, and 0.1% NaN3 and incubated on ice for 30 minutes. Nuclei were pelleted and washed 4× with 1×PBS/1% BSA (3000×g, 5 minutes, 4° C.). Residual hydrogen peroxide was monitored by colorimetric assessment of supernatant via Quantofix peroxides test stick (Sigma).
(§2) Western blotting analysis. Whole cell or nuclear lysates were generated by resuspending cells or nuclei in RIPA (Boston BioProducts) supplemented with 1× cOmplete EDTA-free protease inhibitor cocktail (Roche). […] Lysates were clarified by centrifugation (15,000×g, 20 minutes, 4° C.) and their concentrations quantified via the detergent-compatible Bradford assay (Thermo Fisher Scientific). […] Membranes were blocked with 3% milk in PBS-T and incubated overnight with primary antibody and subsequently with secondary antibody after brief washing with PBS-T. Chemiluminescence was determined by applying ECL Western Blotting detection reagent (GE Healthcare) to membranes and imaging on an Amersham Imager 600 (GE Healthcare). […]

The subject of the next assay is HEK293T nuclei. Described as above. The conditions noted are these: extracted HEK293T nuclei. In kind it is biochemical, human. The procedure:
as §1, §2

From patent US20230024461A1, “METHODS FOR DUAL DNA/PROTEIN TAGGING OF OPEN CHROMATIN” (Beth Israel Deaconess Medical Center, Inc., priority 2019, published 2023) come the findings set out here.

B1: TP3: Tn5 transposase-AEAAAKEAAAKA linker-APEX2 peroxidase fusion, C-terminal FLAG; amino acid SEQ ID NO: 27 (protein)
chain: MITSALHRAADWAKSVFSSAALGDPRRTARLVNVAAQLAKYSGKSITISSEGSKAMQEGAYRFIRNPNVSAEAIRKAGAMQTVKLAQEFPELLAIEDTTSLSYRHQVAEELGKLGSIQDKSRGWWVHSVLLLEATTFRTVGLLHQEWWMRPDDPADADEKESGKWLAAAATSRLRMGSMMSNVIAVCDREADIHAYLQDKLAHNERFVVRSKHPRKDVESGLYLYDHLKNQPELGGYQISIPQKGVVDKRGKRKNRPARKASLSLRSGRITLKQGNITLNAVLAEEINPPKGETPLKWLLLTSEPVESLAQALRVIDIYTHRWRIEEFHKAWKTGAGAERQRMEEPDNLERMVSILSFVAVRLLQLRESFTPPQALRAQGLLKEAEHVESQSAETVLTPDECQLLGYLDKGKRKRKEKAGSLQWAYMAIARLGGFMDSKRTGIASWGALWEGWEALQSKLDGFLAAKDLMAQGIKIAEAAAKEAAAKAGKSYPTVSADYQDAVEKAKKKLRGFIAEKRCAPLMLRLAFHSAGTFDKGTKTGGPFGTIKHPAELAHSANNGLDIAVRLLEPLKAEFPILSYADFYQLAGVVAVEVTGGPKVPFHPGREDKPEPPPEGRLPDPTKGSDHLRDVFGKAMGLTDQDIVALSGGHTIGAAHKERSGFEGPWTSNPLIFDNSYFTELLSGEKEGLLQLPSDKALLSDPVFRPLVDKYAADEDAFFADYAEAHQKLSELGFADADYKDDDDK
modifications: C-terminal FLAG
With B1, in the assay with K562 nuclei, the biotin labeling result is reported as “highest levels of labeling”. The peroxidase-dependent biotin signal result in the assay on HEK293T nuclei is on record as “strong peroxidase-dependent biotin signal”.
